Test results reported in patent KR20160093502A (dated 2016).

Target: T1, EPRS (glutamyl-prolyl tRNA synthetase), human 세포에서 원래 발현된 EPRS (Hela cell lysate) (human, UniProt P07814 1-1512)
T1 construct: Endogenous protein in 50 ug HeLa lysate, denatured on a western blot; also called endogenous EPRS in HeLa cell lysate
Test: western blot on HeLa cell lysate (clones from panning on EPRS WHEP domain antigen)

T1 sequence (P07814 whole entry): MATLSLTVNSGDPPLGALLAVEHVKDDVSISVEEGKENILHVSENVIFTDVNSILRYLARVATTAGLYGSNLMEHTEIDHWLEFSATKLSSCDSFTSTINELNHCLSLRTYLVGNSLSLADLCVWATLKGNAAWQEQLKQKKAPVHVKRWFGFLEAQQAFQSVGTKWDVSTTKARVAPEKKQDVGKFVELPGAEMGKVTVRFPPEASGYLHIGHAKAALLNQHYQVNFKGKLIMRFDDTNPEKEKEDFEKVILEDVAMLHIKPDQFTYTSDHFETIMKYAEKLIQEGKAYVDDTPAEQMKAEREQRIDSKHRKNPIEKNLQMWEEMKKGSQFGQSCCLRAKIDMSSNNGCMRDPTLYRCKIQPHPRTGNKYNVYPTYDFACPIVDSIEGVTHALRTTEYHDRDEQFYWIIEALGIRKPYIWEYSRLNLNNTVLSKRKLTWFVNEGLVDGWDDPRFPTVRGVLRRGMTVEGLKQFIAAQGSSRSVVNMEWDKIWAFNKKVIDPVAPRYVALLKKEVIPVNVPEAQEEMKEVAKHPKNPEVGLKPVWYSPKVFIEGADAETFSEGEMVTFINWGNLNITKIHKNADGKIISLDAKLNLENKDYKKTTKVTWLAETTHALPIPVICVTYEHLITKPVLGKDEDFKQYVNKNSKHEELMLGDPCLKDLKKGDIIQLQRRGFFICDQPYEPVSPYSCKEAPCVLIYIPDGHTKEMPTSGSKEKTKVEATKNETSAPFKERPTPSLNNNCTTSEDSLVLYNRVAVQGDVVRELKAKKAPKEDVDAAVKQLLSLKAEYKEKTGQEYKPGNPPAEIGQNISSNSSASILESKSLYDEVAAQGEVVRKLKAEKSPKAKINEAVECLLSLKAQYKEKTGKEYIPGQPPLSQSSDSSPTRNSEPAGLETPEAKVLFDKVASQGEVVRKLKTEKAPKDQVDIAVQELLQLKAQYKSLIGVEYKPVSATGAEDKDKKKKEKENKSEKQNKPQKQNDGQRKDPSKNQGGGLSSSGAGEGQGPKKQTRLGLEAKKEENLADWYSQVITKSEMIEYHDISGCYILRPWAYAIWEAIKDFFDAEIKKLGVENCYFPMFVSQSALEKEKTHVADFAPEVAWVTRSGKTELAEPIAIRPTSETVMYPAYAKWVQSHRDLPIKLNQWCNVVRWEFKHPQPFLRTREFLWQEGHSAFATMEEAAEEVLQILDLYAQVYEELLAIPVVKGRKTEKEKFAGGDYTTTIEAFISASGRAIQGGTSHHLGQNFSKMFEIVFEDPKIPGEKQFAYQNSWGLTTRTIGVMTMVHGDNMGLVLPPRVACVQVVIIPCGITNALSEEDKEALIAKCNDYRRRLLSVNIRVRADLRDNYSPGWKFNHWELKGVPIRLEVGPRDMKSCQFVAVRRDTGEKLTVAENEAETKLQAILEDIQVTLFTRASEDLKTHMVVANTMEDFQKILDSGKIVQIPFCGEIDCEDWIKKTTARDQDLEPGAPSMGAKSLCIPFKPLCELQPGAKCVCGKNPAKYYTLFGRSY

binding result | Binder
binds | SEQ ID NO 42 (scFv) scFv: EVQLLESGGGLVQPGGSLRLSCAVSGFTFSSYYMSWVRQAPGKGLEWVSLISPGSGSIYYADSVKGRFTISRDNSKNTLYLQMNSLRAEDTAVYYCARTGWLFDYWGQGTLVTVNSGGGGSGGGGSGGGGSQSVLTQPPSASGTPGQRVTISCSGSSSNIGNNAVNWYQQLPGTAPKLLIYSNSHRPSGVPDRFSGSKSGTSASLAISGLRSEDEADYYCGSWDASLNGYVFGGGTKLTVL
binds | SEQ ID NO 28 (scFv) scFv: EVQLLESGGGLVQPGGSLRLSCAASGFTFSNYAMSWVRQAPGKGLEWVSGIYHGGGNKYYADSVKGRFTISRDNSKNTLYLQMNSLRAEDTAVYYCARTRTLFDYWGQGTLVTVSSGGGGSGGGGSGGGGSQSVLTQPPSASGTPGQRVTISCTGSSSNIGNNAVSWYQQLPGTAPKLLIYANSHRPSGVPDRFSGSKSGTSASLAISGLRSEDEADYYCGTWDASLSGYVFGGGTKLTVL
